# Target: T1, recombinant furin (rFurin) (Homo sapiens, UniProt P09958)
# T1 construct: purchased NEB
# Experiment: In vitro furin cleavage assay
# Type: biochemical
# Experimental: CHO-FD11 cells stably expressing FGE-His6 or HT1080 cells were grown for 24 h, and cells and medium were harvested. For treatment with furin in vitro cell pellets were resuspended in HEPES pH 7.5 buffer containing 1 mM CaCl2 and 0.5% Triton X-100 and lysed in the absence of protease inhibitors by sonication on ice. Appropriate amounts of cell lysate and medium were incubated for 3 h at 25° C. with 4 units of furin (NEB) with or without 25 μM decanoyl-RVKR-CMK (Alexis biochemicals) as indicated in the figures. For in vivo treatment, HT1080 Tet-On cells were transiently transfected with pBI-FGE-HA and 4 h post-transfection, the medium was replenished with medium containing 20 ng/mL doxycycline and various concentrations of decanoyl-RVKR-CMK or only DMSO as a carrier control. The cells and medium were collected after 16 h of induction/treatment for further analysis. The samples were boiled in Laemmli buffer and analyzed by SDS-PAGE and western blotting with FGE antiserum.
# In mammals, the proproteinconvertase family comprises nine enzymes that differ in their substrate specificity and tissue-specific expression and/or subcellular localization (17). Furin is the best characterized mammalian PC with a ubiquitous tissue distribution and it is the major convertase in the secretory pathway. To analyze the role of furin in the processing of FGE the inventors expressed FGE in cells that are deficient for furin. […] When cell homogenate and medium from CHO-FD11 cells stably expressing FGE-His were treated with commercially available recombinant furin (rFurin), almost half the amount of FGE was processed, as observed for both cells and medium (FIG. 12D). Using this in vitro furin cleavage assay, the inventors also examined whether endogenous intracellular FGE is susceptible to furin processing. Indeed, rFurin readily converted almost 90% of endogenous fl-FGE from untransfected HT1080 cells to the truncated form (FIG. 12E).
# Although FGE is an ER resident protein, it lacks a canonical ER-retention motif. […] In this study, using the in vitro furin cleavage assay, the inventors assessed furin-mediated processing of the FGE-ERp44 covalent complex (FIG. 8). Homogenates, pre-treated with NEM (to prevent post-lysis disulfide shuffling), from HT1080 cells expressing either FGE alone or FGE plus myc-ERp44 together from a bi-directional promoter were incubated with rFurin and analyzed by SDS-PAGE under non-reducing conditions. Upon overexpression, intracellular FGE via its N-terminal cysteines (C50 and C52) forms covalently cross-bridged homodimers (FIG. 15, lane 1 and 2) and, additionally, FGE-ERp44 heterodimers when co-expressed with ERp44 (FIG. 15, lane 4 and 6) as previously observed (13). Removal of the N-terminus by furin cleavage should lead to a disappearance of the homo-/hetero-dimeric FGE forms, which serves as an indicator for accessibility of the furin cleavage motif in FGE.
# T1 sequence (P09958 108-794): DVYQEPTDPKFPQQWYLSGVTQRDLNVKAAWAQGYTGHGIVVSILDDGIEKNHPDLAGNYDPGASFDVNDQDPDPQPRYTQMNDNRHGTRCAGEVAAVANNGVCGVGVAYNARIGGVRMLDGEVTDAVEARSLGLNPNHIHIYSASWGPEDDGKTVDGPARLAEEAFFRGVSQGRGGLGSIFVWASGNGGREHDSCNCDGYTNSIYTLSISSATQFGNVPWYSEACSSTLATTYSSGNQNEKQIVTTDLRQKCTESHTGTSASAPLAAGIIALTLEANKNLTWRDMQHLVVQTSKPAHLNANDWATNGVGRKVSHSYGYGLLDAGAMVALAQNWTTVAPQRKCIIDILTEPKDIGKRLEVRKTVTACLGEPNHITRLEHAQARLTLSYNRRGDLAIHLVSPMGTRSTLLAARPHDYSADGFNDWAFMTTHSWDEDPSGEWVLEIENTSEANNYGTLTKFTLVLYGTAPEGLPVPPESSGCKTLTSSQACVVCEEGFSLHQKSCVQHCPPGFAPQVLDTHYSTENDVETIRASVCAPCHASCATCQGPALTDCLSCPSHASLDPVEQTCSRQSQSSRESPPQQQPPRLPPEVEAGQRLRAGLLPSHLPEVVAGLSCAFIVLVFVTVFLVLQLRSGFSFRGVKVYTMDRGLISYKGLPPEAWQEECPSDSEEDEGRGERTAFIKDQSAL
molecule,measurement,setting,value
"FGE: human wild type full length formylglycine generating enzyme with RYSR furin cleavage motif, SEQ ID NO:2 (protein, cloned matured acitve full length FGE with 6x His tag on C-terminus) ADEFSQEAGTGAGAGSLAGSCGCGTPQRPGAHGSSAAAHRYSREANAPGPVPGERQLAHSKMVPIPAGVFTMGTDDPQIKQDGEAPARRVTIDAFYMDAYEVSNTEFEKFVNSTGYLTEAEKFGDSFVFEGMLSEQVKTNIQQAVAAAPWWLPVKGANWRHPEGPDSTILHRPDHPVLHVSWNDAVAYCTWAGKRLPTEAEWEYSCRGGLHNRLFPWGNKLQPKGQHYANIWQGEFPVTNTGEDGFQGTAPVDAFPPNGYGLYNIVGNAWEWTSDWWTVHHSVEETLNPKGPPSGKDRVKKGGSYMCHRSYCYRYRCAARSQNTPDSSASNLGFRCAADRLPTMDSGRGSHHHHHHH",accessibility of the furin-cleavage site in FGE monomer and homodimer,NEM-treated HT1080 Tet-On lysates,accessible to furin
same,furin cleavage of FGE in complex with ERp44,NEM-treated HT1080 Tet-On lysates co-expressing myc-ERp44,protected from furin cleavage
same,amount of FGE processed by rFurin,"cell homogenate and medium from CHO-FD11 cells, 3 h 25° C.",almost half
same,endogenous fl-FGE converted to the truncated form by rFurin,lysate of untransfected HT1080 cells,~90%

# Reference: patent US20150141617A1, “PRODUCTION AND PURIFICATION OF ACTIVE EUKARYOTIC FORMYLGLYCINEGENERATING ENZYME (FGE) VARIANTS” (Universität Bielefeld, priority 2013, published 2015)
